# Source: US10617743B2, “Method to improve safety and efficacy of anti-cancer therapy” (CLS Therapeutics Limited, priority 2014, dated 2020)
# Where two headings read alike, the source gives them in different places.
# B1: DNase gamma: recombinant mouse DNase gamma (USCN Life Science Inc.) (protein, UniProt O55070 26-310, looked up)
# Deoxyribonuclease gamma: LRLCSFNVRSFGASKKENHEAMDIIVKIIKRCDLILLMEIKDSSNNICPMLMEKLNGNSRRSTTYNYVISSRLGRNTYKEQYAFVYKEKLVSVKTKYHYHDYQDGDTDVFSREPFVVWFHSPFTAVKDFVIVPLHTTPETSVKEIDELVDVYTDVRSQWKTENFIFMGDFNAGCSYVPKKAWQNIRLRTDPKFVWLIGDQEDTTVKKSTSCAYDRIVLCGQEIVNSVVPRSSGVFDFQKAYDLSEEEALDVSDHFPVEFKLQSSRAFTNNRKSVSLKKRKKGNRS
# B2: human recombinant DNase I: human recombinant DNase I (Pharmsynthez OJSC), deoxyribonuclease enzyme (protein, UniProt P24855 23-282, looked up)
# Deoxyribonuclease-1: LKIAAFNIQTFGETKMSNATLVSYIVQILSRYDIALVQEVRDSHLTAVGKLLDNLNQDAPDTYHYVVSEPLGRNSYKERYLFVYRPDQVSAVDSYYYDDGCEPCGNDTFNREPAIVRFFSRFTEVREFAIVPLHAAPGDAVAEIDALYDVYLDVQEKWGLEDVMLMGDFNAGCSYVRPSQWSSIRLWTSPTFQWLIPDSADTTATPTHCAYDRIVVAGMLLRGAVVPDSALPFNFQAAYGLSDQLAQAISDHYPVEVMLK
# Assays:
# [1] = tested on: Wistar male rats; settings: for Number of dead/out of total in group: monitored 2 weeks
# Text: Group I: control group (no Doxorubicin, no DNase); • 2.
# Animals were monitored during 2 weeks from the beginning of experiment for survival and weight.
# [2] = tested on: white blood cell count (WBC); assay: Cyclophosphamide-induced neutropenia in mice (FIG. 3); type: in vivo; settings: for Effect on typical early phase decline in WBC count (FIG. 3): cyclophosphamide 200 mg/kg IP Day 1, DNase I 25 mg/kg/day IV or GM-CSF 200 μg/kg/day SC on Days 2-5
# Protocol: 30 female 10-12 week old BALB/C mice (obtained from Rappolovo animal house) were used in this experiment. […] Starting on Day 2, mice were then treated as follows: • 1. Group I (n=10): control (no treatment); • 2. […] Group III (n=10): animals were treated with human recombinant GM-CSF (Neostim, Pharmsynthez OJSC) at 200 μg/kg/day dose injected subcutaneously (SC) on Days 2-5. […] The graph in FIG. 3 summarizes the dynamics of the white blood cell count (WBC) in the three experimental groups. The vertical axis represents WBC with units of 10^9 WBC/L. The horizontal axis represents the number of days after cyclophosphamide injection.
# [3] = tested on: gastrointestinal lesions; type: in vivo, rats; settings: for Total number of lesions per group: 16 rats
# Protocol: On Day 1, Etoposide (LANCE) 200 mg/kg and 5-fluorouracil (5-FU; EBEWE) 400 mg/kg were given orally via feeding needle in 500 μl of a 9% glucose solution. Animals were divided into 4 groups of 16 rats each. […] Group I: IV placebo (WFI); • 2. Group II: human recombinant DNase I (Pharmsynthez OJSC) at 1.5 mg/kg (3000 KU/kg) dose IV; • 3. Group III: human recombinant DNase I (Pharmsynthez OJSC) at 50 mg/kg (100000 KU/kg) dose IV; • 4. Group IV: cimetidine solution (Gedeon Richter) at 50 mg/kg dose IV.
# 36 hours later, all animals were euthanized and their stomachs were removed and analyzed for the presence of erosions and hemorrhages using an automated video analyzer system.
# [4] = tested on: L1210 leukemia cells; assay: Survival of mice transplanted with L1210 leukemia cells (FIG. 4); type: in vivo; settings: DBA2 mice; AraC 1000 mg/kg IP Days 2, 5, 8; DNase II 15 or 45 mg/kg/day IP; alone or combined
# Protocol: Treatment with DNase and AraC was initiated on Day 1 of experiment. Cytosine arabinoside (AraC; Cytosar, Pfizer) was injected IP at a dose of 1000 mg/kg on Days 2, 5 and 8. The injected doses were considered adequate for the model and injection route based on prior experiments (13-14). DNase II (Wornington) was injected IP at doses of 15 mg/kg/day and 45 mg/kg/day on Days 1, 3, 5, 8, 10, 12, 15, 17, and 19.
# Animals were randomized into 6 experimental groups of 6 mice per group as follows: • 1. Group I: negative control (no treatment); • 2. Group II: positive control (animals treated with AraC); • 3. […]; • 4. Group IV: animals treated with AraC and 45 mg/kg DNase; • 5. Group V: animals treated with 15 mg/kg DNase, no AraC; • 6. Group VI: animals treated with 45 mg/kg DNase, no AraC.
# The vertical axis of FIG. 4 represents the survival measured in days after implantation with the L1210 leukemia cells. The six experimental groups are represented on the horizontal axis: 1—Negative Control; 2—AraC (positive control); 3—AraC+DNase II 15 mg/kg; 4—AraC+DNase II 45 mg/kg; 5—DNase II 15 mg/kg 6—DNase II 45 mg/kg.
# [5] = tested on: thymocytes; assay: Con A-induced lymphocyte blast transformation of thymocytes from paclitaxel-treated mice; type: in vivo; settings: paclitaxel 20 mg/kg IV, DNase gamma 2 mg/kg IP
# Protocol: 10 male 6-week-old (CBAxCS7Bl6) F1 mice (obtained from Rappolovo animal house) were given a single 20 mg/kg dose of paclitaxel (Paclitaxel-Teva) IV. A group of 5 paclitaxel treated mice were injected IP 1 hour later with recombinant mouse DNase gamma (USCN Life Science Inc.) at 2 mg/kg dose IP. A group of 5 untreated mice were injected IP at the same time with 1 ml of placebo (WFI) to serve as the control. All mice were killed 24 hours later by cervical dislocation. The thymuses from each group were collected and homogenized in a separator in RPMI 1640 media supplemented with 10% fetal calf serum. The suspension of thymocytes was filtered and sedimented in a centrifuge at 400×g for 2 minutes and then resuspended with the same media. Thymocytes were plated into 96 well plates (900,000 cells per well in 200 μl of RPMI 1640 supplemented with 10% fetal calf serum (FCS)) and incubated for 32 hours at 37° C., 100% humidity and 5% CO2 atmosphere. Each well was then supplemented with ^3H thymidine (1 μCi/10 μl/well) and Concanavalin A (ConA; 50 μl: 1.25 μg/ml). After 24 hours of further incubation, thymocytes were harvested and dried. Labeled ^3H thymidine incorporation was measured using a Beckman scintillation counter.
# [6] = tested on: myocardium; assay: Myocardial necrosis area in deceased rats challenged with doxorubicin (FIG. 1); type: in vivo; settings: Doxorubicin 7.5 mg/kg IV, DNase I 15 mg/kg daily IP vs placebo
# Protocol: FIG. 1 is a bar graph showing myocardial necrosis area in deceased rats challenged with sub-lethal IV doses of doxorubicin (7.5 mg/kg) and either daily IP injections of human recombinant DNase I (15 mg/kg) (black bar) or daily […] injections of placebo (WFI) (diagonal hatched bar). Serial myocardium microscopy samples from each heart were analyzed using an automated video analyzer to quantify the necrotic areas. The sum of necrotic area (Sna; nm^2) was calculated as a sum of necrotic areas in 30 serial slides from each individual autopsied heart (n=3 for DNase I-treated rats—black bar; n=5 for placebo-treated rats—diagonal hatched bar).
# The hearts deceased rats challenged with sub-lethal doses of doxorubicin (7.5 mg/kg) from (Groups IV and V) were autopsied. Serial myocardium microscopy samples from each heart were analyzed using an automated video analyzer to quantify the necrotic areas. The sum of necrotic area (Sna; nm^2) was calculated as a sum of necrotic areas in 30 serial slides from each individual autopsied heart (n=3 for Group IV (FIG. 1, black bars); n=5 for Group V (FIG. 1, diagonal hatched bars)). Group IV received daily IP injections of human recombinant DNase I at 15 mg/kg dose, while Group V received daily IP injections of placebo (WFI).
# [7] = Body weight of mice with Erlich carcinoma, DNase with or without radiotherapy; type: in vivo
# [8] = tested on: Erlich carcinoma cells; assay: Survival of mice with Erlich carcinoma, DNase with or without radiotherapy; type: in vivo; settings: for % Survival on Day 16: no radiotherapy
# [9] = Doxorubicin 7.5 mg/kg/day IV 5 days with DNase I 15 mg/kg/day IP (Group IV) or placebo IP (Group V)
# [10] = Doxorubicin 10.0 mg/kg/day IV 5 days with DNase I 15 mg/kg/day IP (Group VI) or placebo IP (Group VII)
# [11] = treatment 50 mg/kg IV 2 h after Etoposide 200 mg/kg + 5-FU 400 mg/kg per os
# [12] = DNase I 15 mg/kg/day IP with Doxorubicin IV 5 days
# [13] = of 16 rats, treatment 50 mg/kg IV after Etoposide 200 mg/kg + 5-FU 400 mg/kg per os
molecule,measurement,setting,value
"COc1cccc2c1C(=O)c1c(O)c3c(c(O)c1C2=O)C[C@@](O)(C(=O)CO)C[C@@H]3O[C@H]1C[C@H](N)[C@H](O)[C@H](C)O1 [Doxorubicin, reference compound]",Number of dead/out of total in group,[1]; [9],5/6
same,Number of dead/out of total in group,[1]; [10],6/6
"GM-CSF: human recombinant GM-CSF (Neostim, Pharmsynthez OJSC)",Effect on typical early phase decline in WBC count (FIG. 3),[2],not able to prevent it
"CN/C(=N/CCSCc1nc[nH]c1C)NC#N [Cimetidine, cimetidine, reference compound]",Total number of lesions per group,[3]; [11],40
"Nc1ccn([C@@H]2O[C@H](CO)[C@@H](O)[C@@H]2O)c(=O)n1 [AraC, cytosine arabinoside]",Survival after implantation with L1210 leukemia cells (FIG. 4),[4],better survival rates
B1,Effect on taxane-induced suppression of thymocytes' proliferative activity,[5],ameliorates taxane-induced suppression
B2,Effect on neutropenia induced by cyclophosphamide (FIG. 3),"[2]; cyclophosphamide 200 mg/kg IP Day 1, DNase I 25 mg/kg/day IV Days 2-5",ameliorates neutropenia
same,Effect on typical early phase decline in WBC count (FIG. 3),[2],prevents the typical early phase decline in WBC count
same,Effect on lethality of doxorubicin,[1]; [12],suppresses the lethality of doxorubicin
same,Effect on life span of rats challenged with sub-lethal doses of doxorubicin,[1]; [12],increases the life span
same,Number of dead/out of total in group,[1]; [9],3/6
same,Number of dead/out of total in group,[1]; [10],6/6
same,Total number of lesions per group,[3]; treatment 1.5 mg/kg IV 2 h after Etoposide 200 mg/kg + 5-FU 400 mg/kg per os,60
same,Total number of lesions per group,[3]; [11],16
same,Achieved protection compared to 1.5 mg/kg DNase I dose and 50 mg/kg dose of cimetidine,"[3]; DNase I 50 mg/kg IV, rats treated with etoposide and 5-FU",significantly superior
same,Number of lesion free animals,"[3]; of 16 rats, treatment 1.5 mg/kg IV after Etoposide 200 mg/kg + 5-FU 400 mg/kg per os",5
same,Number of lesion free animals,[3]; [13],12
same,Number of lesion free animals (percent),[3]; [13],75%
same,Effect on chemotherapy-induced ulceration,"[3]; rats treated with etoposide and 5-FU, dose-dependent (1.5 and 50 mg/kg IV)",suppresses chemotherapy-induced ulceration
same,Effect on myocardial necrosis area (FIG. 1),[6],decreases the myocardial necrosis area
same,Change in Median Body Weight on Day 16,[7]; Group 4: radiotherapy 200 cGy per day for 5 days plus DNAse I 20 mg/kg/day intramuscularly,0 g
same,Effect on body weight loss induced by radiotherapy,"[7]; mice with Erlich carcinoma, radiotherapy plus DNase I",clearly prevents the body weight loss
same,Survival rates versus non-treated mice,[8]; DNase I alone (Groups 2 and 3),better survival rates
same,% Survival on Day 16,[8]; Group 2: DNAse I 20 mg/kg/day intramuscularly in 2 daily doses,40%
same,% Survival on Day 16,[8]; Group 3: DNAse I 40 mg/kg/day intramuscularly in 2 daily doses,50%
same,Survival of combination of radiation therapy and DNase versus either treatment alone,"[8]; Groups 4 and 5, dose-dependent on DNase",clear survival advantage
